Test results: patent US20250382355A1 (Merck Sharp & Dohme, published 2025)
Numbering of substitutions follows the chain as printed.

Columns and labels:
[1] = target: T1, MERS spike protein on recombinant CHO K1 cells (MERS-CoV, UniProt K9N5Q8 18-1353); assay: FACS on CHO K1 cells
T1 sequence: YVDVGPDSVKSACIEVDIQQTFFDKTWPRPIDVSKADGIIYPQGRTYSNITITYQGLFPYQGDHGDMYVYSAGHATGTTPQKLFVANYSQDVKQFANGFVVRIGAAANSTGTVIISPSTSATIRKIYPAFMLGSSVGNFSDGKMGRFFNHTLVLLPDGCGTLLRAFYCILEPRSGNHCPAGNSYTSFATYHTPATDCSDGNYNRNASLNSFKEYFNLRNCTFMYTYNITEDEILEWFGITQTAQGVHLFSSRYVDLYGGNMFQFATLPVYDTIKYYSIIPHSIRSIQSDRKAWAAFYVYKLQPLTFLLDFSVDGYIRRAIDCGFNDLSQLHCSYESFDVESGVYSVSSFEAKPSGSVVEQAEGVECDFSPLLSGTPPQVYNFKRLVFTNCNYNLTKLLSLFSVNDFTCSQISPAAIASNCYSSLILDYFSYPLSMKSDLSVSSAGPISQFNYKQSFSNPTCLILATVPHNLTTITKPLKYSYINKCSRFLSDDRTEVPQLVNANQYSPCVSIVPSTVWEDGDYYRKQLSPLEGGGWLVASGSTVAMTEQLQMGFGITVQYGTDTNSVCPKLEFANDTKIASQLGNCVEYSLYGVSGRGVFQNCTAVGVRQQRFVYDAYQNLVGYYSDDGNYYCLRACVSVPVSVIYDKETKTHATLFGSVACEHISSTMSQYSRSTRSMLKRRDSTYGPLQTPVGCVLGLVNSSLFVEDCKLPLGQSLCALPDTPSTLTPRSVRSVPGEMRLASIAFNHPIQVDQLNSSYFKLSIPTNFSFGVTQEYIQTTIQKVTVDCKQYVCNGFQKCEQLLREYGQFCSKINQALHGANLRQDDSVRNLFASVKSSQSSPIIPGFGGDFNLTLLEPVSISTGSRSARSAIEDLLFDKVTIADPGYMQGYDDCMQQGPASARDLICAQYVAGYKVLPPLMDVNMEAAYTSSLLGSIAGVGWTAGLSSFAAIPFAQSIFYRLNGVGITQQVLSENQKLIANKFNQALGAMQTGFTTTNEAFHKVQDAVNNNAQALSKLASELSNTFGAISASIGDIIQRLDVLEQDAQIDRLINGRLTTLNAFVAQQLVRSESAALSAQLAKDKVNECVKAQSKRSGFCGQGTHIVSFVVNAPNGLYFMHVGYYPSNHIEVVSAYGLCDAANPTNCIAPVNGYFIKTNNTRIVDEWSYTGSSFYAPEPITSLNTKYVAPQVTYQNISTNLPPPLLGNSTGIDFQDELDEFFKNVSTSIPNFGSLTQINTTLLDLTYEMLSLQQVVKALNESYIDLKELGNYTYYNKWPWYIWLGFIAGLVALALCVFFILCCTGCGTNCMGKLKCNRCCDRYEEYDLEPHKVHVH

[2] = target: T2, SARS-CoV-2 spike protein on recombinant CHO K1 cells (SARS-CoV-2, UniProt P0DTC2 14-1273); assay: FACS on CHO K1 cells
T2 construct: whole, on cells

[3] = target: SARS-CoV spike protein on recombinant CHO K1 cells (SARS-CoV, UniProt P59594 14-1255); assay: FACS on CHO K1 cells
[4] = target: SARS-CoV spike on rVSV-deltaG-Luc pseudovirus (SARS-CoV, UniProt P59594 14-1236); assay: cell-based or functional assay
[5] = target: spike protein of authentic SARS-CoV/Urbani virus (SARS-CoV, UniProt P59594 14-1255); assay: cell-based or functional assay
[6] = target: spike protein of authentic SARS-CoV-2 virus (SARS-CoV-2, UniProt P0DTC2 14-1273); assay: cell-based or functional assay

B1: 7A9 VHH-Fc (Fc fusion)
chain: QVQLVESGGGLVQAGGSLRLSCSASGGTASRSAMGWFRQAPGKEREFVAGISRRNSGSTYVADSYEDSVKGRFTISRDNAKNTIYLQMNSLKPEDTAVYYCAAEPTLGWYVPRRSVEYEYWGQGTQVTVSS
binding result [1]: no binding | EC50 [2]: 80 pM | EC50 [3]: 50 pM

B2: 16H7 VHH-Fc (Fc fusion)
chain: QVQLVESGGGLVQAGGSLRLSCAASGRAFSKDTMGWFRQAPGKEREFVAVISASGDSTYYADFVKGRFTISRDNAKNTEYLQMNSLKPEDTAVYHCAADGARAYYSINAHRYSWAYNYWGQGTQVTVSS
binding result [1]: no binding | EC50 [2]: 310 pM

B3: 15H7 VHH-Fc (Fc fusion)
chain: QVQLVESGGRLVQAGGSLRLSCAAPGRTFRNLTLGWFRQAPGKEREFVASTSWPDDEMTYYTDSVKGRFTISRDNAKNTVYLQMNSLKPEDTAVYYCAAASWSGRSTLSYDYDYWGQGTQVTVST
binding result [1]: no binding | EC50 [2]: 280 pM | EC50 [3]: 140 pM | pseudovirus neutralization IC50 [4]: 1710 pM

B4: 5A6 VHH-Fc (Fc fusion)
chain: QVQLVESGGGLAQAGGSLRLSCATSGLTFSMSAMGWFRQAPGNEREFVGVINWNGGSSRYADSVRGRFTISRDNAKNTVYLQMNSLKPEDTGVYYCAADALNIGTGEVNPRLYDYWGQGTQVMVSS
binding result [1]: no binding | EC50 [2]: 430 pM | EC50 [3]: 210 pM | pseudovirus neutralization IC50 [4]: 6300 pM

B5: 10B8 VHH (VHH)
VHH: QVQLVESGGGLVQPGGSLRLSCAASGITLDYYAIAWFRQAPGKEREGVSCFCSSDGDIRYADSVKGRFTISRDNAKNTVYLQMNSLKPEDTAVYYCATERVYSSTWFFHRYSELDFGSWGRGTQVTVSS
authentic virus neutralization IC50 [5]: 150 pM | authentic virus neutralization IC50 [6]: 2900 pM

B6: 13C8 VHH-Fc (Fc fusion)
chain: QVQLVESGGGLVQAGGSLRLSCAASGRTVNKYMTGWFRQTPGKEREFVASIDWSSTTTHYANSVKGRFTISRDKVKNTVYLQMNGLKPEDTAVYYCAAHQDSSYGYTILPIDYDSWGQGTQVTVSS
binding result [1]: no binding | EC50 [2]: 220 pM | EC50 [3]: 110 pM | pseudovirus neutralization IC50 [4]: 4980 pM

B7: 19E10 VHH-Fc (Fc fusion)
chain: QVQLVESGGGLVQPGGSLRLSCVASGSTISINSMGWYRQAPGKAREMVATITNDGPIKYADPVKGRFTISRDNPKNTVYLQMNSLKPEDTAVYYCVADRAYWLAGEWEYWGQGTQVTVSS
binding result [1]: no binding | EC50 [2]: 140 pM | EC50 [3]: 80 pM | pseudovirus neutralization IC50 [4]: 120 pM

B8: 11F8 VHH-Fc (Fc fusion)
chain: QVQLVESGGGLVQAGGSLRLSCAASGRTVGYYAVGWFRQAPGKERDFVAAISWSGRNTNYADSVTGRFTIFRDNAKNTVDLQMNSLKPEDTAVYYCAADYWNYGSGSEVPNNYDTWGQGTQVTVSS
binding result [1]: no binding | EC50 [2]: 80 pM | EC50 [3]: 90 pM | pseudovirus neutralization IC50 [4]: 207000 pM

B9: 9B2 VHH-Fc (Fc fusion)
chain: QVQLVESGGGLVQPGGSLRLSCAASGFTLDNYAIGWFRQAPGKEREGVSCISSSDGDTQYADSVKGRFTISRDNAKNTVYLQMNSLKPEDTAVYYCAVEKVYARSWFFHLCSELDFGSWGQGTQVTVSS
binding result [1]: no binding | EC50 [2]: 210 pM | EC50 [3]: 130 pM | pseudovirus neutralization IC50 [4]: 190 pM

B10: S3_44 VHH-Fc (Fc fusion)
chain: QVQLVESGGGLVQPGGSLRLSCARSENNFSINAMAWYRQAPGKQRELVAAITTAGTTNYADSVKGRFTISRDNAKTTIYLQMNSLKPEDTAVYYCNLWAGTRDDLNEYWGQGTQVTVSS
EC50 [1]: 110 pM | EC50 [2]: 80 pM

B11: S3_29 VHH-Fc (Fc fusion)
chain: B10 chain with A54S
EC50 [1]: 50 pM | EC50 [2]: 30 pM

B12: 11F5 VHH-Fc (Fc fusion)
chain: QVQLVESGGGAVQAGDSLRLSCTASGRTFSTYAVGWFRQAPGKERELLAAITGSGRNPYYPDSLKGRFTISREYAKLPVYLQMNSLKPEDTAVYYCAARRGAIATMPLDYDHWGQGTQVTVSS
binding result [1]: no binding | EC50 [2]: 40 pM

B13: 15H1 VHH-Fc (Fc fusion)
chain: QVQLVESGGGLAQAGGSLRLSCASSGLIFSGSAMGWFRQAPGKEREFVGVISWNGRTTYADSVKGRFTISRDDAVNMVWLQMNNLKPEDTAVYYCAADHLNYGSGDVNPRTYDYWGQGTQVTVSS
binding result [1]: no binding | EC50 [2]: 250 pM | EC50 [3]: 140 pM | pseudovirus neutralization IC50 [4]: 12300 pM

B14: 8E9 VHH-Fc (Fc fusion)
chain: QVQLVESGGGLVEAGGSLRLSCVASGSSSSINAMGWYRQAPGKQRELVASISHDGETKYANSVKGRFTISRGNAKNTIYLQMNSLKPEDTAVYYCVGDVAWVVVAGEYDYWGQGTQVTVSS
binding result [1]: no binding | EC50 [2]: 310 pM | EC50 [3]: 170 pM | pseudovirus neutralization IC50 [4]: 2940 pM

B15: 5D7 VHH-Fc (Fc fusion)
chain: QVQLVESGGGLVQAGGSLRLSCAASGRTGSRYIMGWFRQAPGKEREFVAAINWRGDSTYYADSVKGRFTIARDNAKNTAYLQMNSLKPEDTAVYYCVADRGESYYYTRSTEYTYWGQGTQVTVSS
binding result [1]: no binding | EC50 [2]: 120 pM | EC50 [3]: 90 pM | pseudovirus neutralization IC50 [4]: 220000 pM

B16: 1A11 VHH-Fc (Fc fusion)
chain: QVQLVESGGGLVQAGGSLRLSCEVSGSIYSINSMGWYRQAPGKQRELVAGIVSDGRINYADSVKGRFTISRAKNTVYLQMNSLKPEDTAVYYCAADRAFVYAGDYDYLGQGTQVTVSS
binding result [1]: no binding | EC50 [2]: 130 pM | EC50 [3]: 60 pM | pseudovirus neutralization IC50 [4]: 180 pM

B17: 3D4 VHH-Fc (Fc fusion)
chain: QVQLVESGGGLVQPGGSLRLSCAASGFTLDLNSIGWFRQAPGKEREGVSCISPSGSRMHYADSVKGRFTISRDNAKNTVYLQMNSLKPEDTAVYYCATGSPSYHYCSMYGLEYDSWGQGTQVTVPS
binding result [1]: no binding | EC50 [2]: 150 pM | pseudovirus neutralization IC50 [4]: 400 pM

B18: 19C10 VHH-Fc (Fc fusion)
chain: B17 chain with G55A, R57S, M58T, S100T, S115D, P125S
binding result [1]: no binding | EC50 [2]: 170 pM | pseudovirus neutralization IC50 [4]: 450 pM

B19: 20D11 VHH-Fc (Fc fusion)
chain: QVQLVESGGGLVQAGGSLRLSCAASGRTSSIYSVGWFRQAPGKERELVAGITWSGGTTYYSDSVKGRFTISRDNAKNTVNLQMNNLKPEDTAIYYCAVDRYSMTMSARDYDYWGQGTQVTVSS
binding result [1]: no binding | EC50 [2]: 80 pM

B20: 14F3 VHH-Fc (Fc fusion)
chain: B19 chain with S33G, G50L, R72K, N80F, R100T, D111E
binding result [1]: no binding | EC50 [2]: 60 pM

B21: 19B8 VHH-Fc (Fc fusion)
chain: QVQLVESGGGLVQAGGSLRLSCAASGRTFTNYAMGWFRQAPGKEREFVAAISWSGGGTNYADSVKGRFTISRDNAKNTVYLQMNSPKPEDTAVYYCATTLGYYGSSSRLYEYWGQGTQVTVSS
binding result [1]: no binding | EC50 [2]: 40 pM | pseudovirus neutralization IC50 [4]: 42000 pM
